Experimental data from US20050064533.

Columns and labels:
[1] = biological target: recombinant C-terminal 90 amino acids of human HIF-1a, D of the hydroxylation motif changed to alanine, Q16665
[2] = biological target: recombinant C-terminal 90 amino acids of human HIF-1a, conserved G 5 amino acids C-terminal to the target asparagine changed to alanine, Q16665
[3] = biological target: recombinant C-terminal 90 amino acids of human HIF-1a, wild type, Q16665
[4] = biological target: recombinant C-terminal 90 amino acids of human HIF-1a, glutamic acid (E) of the hydroxylation motif changed to alanine, Q16665
Chain of recombinant C-terminal 90 amino acids of human HIF-1a, glutamic acid (E) of the hydroxylation motif changed to alanine, Q16665 (Q16665 other isoform, or with tags, fused parts or gaps): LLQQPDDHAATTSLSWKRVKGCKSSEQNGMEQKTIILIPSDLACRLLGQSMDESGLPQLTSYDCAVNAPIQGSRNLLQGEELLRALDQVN

[5] = biological target: recombinant C-terminal 90 amino acids of human HIF-1a, tyrosine (Y) of the hydroxylation motif changed to alanine, Q16665
Chain of recombinant C-terminal 90 amino acids of human HIF-1a, tyrosine (Y) of the hydroxylation motif changed to alanine, Q16665 (Q16665 737-826 Y798A): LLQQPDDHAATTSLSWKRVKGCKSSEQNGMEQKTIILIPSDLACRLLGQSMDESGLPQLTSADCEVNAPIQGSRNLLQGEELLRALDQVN

[6] = biological target: recombinant C-terminal 90 amino acids of human HIF-1a, C of the hydroxylation motif changed to alanine, Q16665
Chain of recombinant C-terminal 90 amino acids of human HIF-1a, C of the hydroxylation motif changed to alanine, Q16665 (Q16665 737-826 C800A): as the sequence (Q16665 737-826 Y798A) above, with A62Y, C64A counted along it

[7] = biological target: recombinant C-terminal 90 amino acids of human HIF-1a, valine preceding the target asparagine changed to alanine, Q16665
Chain of recombinant C-terminal 90 amino acids of human HIF-1a, valine preceding the target asparagine changed to alanine, Q16665 (Q16665 other isoform, or with tags, fused parts or gaps): as the sequence (Q16665 737-826 Y798A) above, with A62Y, V66A counted along it

Chain of recombinant C-terminal 90 amino acids of human HIF-1a, D of the hydroxylation motif changed to alanine, Q16665 (Q16665 737-826 D799A): as the sequence (Q16665 737-826 Y798A) above, with A62Y, D63A counted along it
Chain of recombinant C-terminal 90 amino acids of human HIF-1a, wild type, Q16665 (Q16665 737-826): as the sequence (Q16665 737-826 Y798A) above, with A62Y counted along it
Chain of recombinant C-terminal 90 amino acids of human HIF-1a, conserved G 5 amino acids C-terminal to the target asparagine changed to alanine, Q16665 (Q16665 other isoform, or with tags, fused parts or gaps): as the sequence (Q16665 737-826 Y798A) above, with A62Y, G72A counted along it

B1: MBP (maltose binding protein) fused to wild type HIF Asparagine Hydroxylase (HNH) (protein)
chain: MAATAAEAVASGSGEPREEAGALGPAWDESQLRSYSFPTRPIPRLSQSDPRAEELIENEEPVVLTDTNLVYPALKWDLEYLQENIGNGDFSVYSASTHKFLYYDEKKMANFQNFKPRSNREEMKFHEFVEKLQDIQQRGGEERLYLQQTLNDTVGRKIVMDFLGFNWNWINKQQGKRGWGQLTSNLLLIGMEGNVTPAHYDEQQNFFAQIKGYKRCILFPPDQFECLYPYPVHHPCDRQSQVDFDNPDYERFPNFQNVVGYETVVGPGDVLYIPMYWWHHIESLLNGGITITVNFWYKGAPTPKRIEYPLKAHQKVAIMRNIEKMLGEALGNPQEVGPLLNTMIKGRYN
hydroxylation in an in vitro hydroxylation assay [1]: an up to 50% decrease in hydroxylation of the target aspargine
hydroxylation in an in vitro hydroxylation assay [2]: an approximately 50% decrease in hydroxylation
hydroxylation assessed by counting liberated 14CO2 [3]: the degree of hydroxylation for each mutant normalised to the level observed for the wild type HIF-1α CAD sequence
hydroxylation in an in vitro hydroxylation assay [4]: The glutamic acid (E) residue is more important or efficient hydroxylation than D or C
hydroxylation in an in vitro hydroxylation assay [5]: Substituting alanine in place of tyrosine (Y) has little effect
hydroxylation in an in vitro hydroxylation assay [6]: an up to 50% decrease in hydroxylation of the target aspargine
hydroxylation in an in vitro hydroxylation assay [7]: altering this valine to alanine results in very low levels of hydroxylation
